Reference: patent US9212226B2, “Amino acid sequences directed against CXCR4 and other GPCRs and compounds comprising the same” (Ablynx N.V., priority 2008, dated 2015)
“Also recorded” adds a separate entry of the source.

Experiments:
[1] = target: T1, CXCR3 (Homo sapiens, UniProt P49682); test: CRE/β-galactosidase reporter gene selectivity screen, CXCR3; assay type: cell-based; details: up to 2.5, forskolin 3 μM, agonist at 50-80% Emax
T1 sequence (P49682 1-368): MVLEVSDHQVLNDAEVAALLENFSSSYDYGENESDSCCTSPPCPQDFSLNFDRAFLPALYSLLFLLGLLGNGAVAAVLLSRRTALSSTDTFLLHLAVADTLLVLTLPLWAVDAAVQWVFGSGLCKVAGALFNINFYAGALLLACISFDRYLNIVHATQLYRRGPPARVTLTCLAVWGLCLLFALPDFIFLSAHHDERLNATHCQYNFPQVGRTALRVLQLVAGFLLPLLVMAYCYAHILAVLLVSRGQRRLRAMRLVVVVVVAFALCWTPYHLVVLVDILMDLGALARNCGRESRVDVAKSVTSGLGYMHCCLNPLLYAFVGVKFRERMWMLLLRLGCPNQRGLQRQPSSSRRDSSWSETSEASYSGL
Protocol: Data are shown as means±S.E.M. (n=2-3).
HEK293T cells were maintained at 37° C. in a humidified 5% CO2, 95% air atmosphere in Dulbecco's modified Eagle's medium (DMEM) containing 2 mM L-glutamine, 50 IU/ml penicillin, 50 μg/ml streptomycin, and 10% (v/v) fetal calf serum. Jurkat cells were cultured in a humidified 5% CO2, 95% air atmosphere in a 1:1 mixture of Dulbecco's modified Eagle's medium (DMEM) and Ham's F12 medium containing 2 mM L-glutamine, 50 IU/ml penicillin, 50 μg/ml streptomycin, and 10% (v/v) fetal calf serum. […] [^125 I]-Labelling— Radiolabeling of Nanobodies with ^125I was performed using the Iodo-gen method (Pierce, Rockford, Ill.) according to the manufacturer's protocol. ^125I-labeled Nanobodies was separated from free iodine (>99%) using a Sephadex G-25 gel filtration column (Amersham Biosciences, Piscataway, N.J.). […] Competition Binding Assays— Membranes from HEK293T cells transiently expressing CXCR3 or CXCR4 were prepared 48 h after transfection as follows. Cells were washed and scraped from the cell culture dishes with ice-cold PBS containing 1 mm EDTA. The scraped cells were pelleted at 1500×g for 10 min at 4° C. […] The total protein was determined using a Bradford assay (Bio-Rad). […] Plates were counted by liquid scintillation. […] The accumulated inositol phosphates were isolated by anion exchange chromatography and counted by liquid scintillation. […]

[2] = target: CXCR4 (Homo sapiens, UniProt P61073); test: Inositol phosphate accumulation assay in HEK293T cells expressing CXCR4 and Gαqi5; assay type: cell-based; details: for inhibition of the CXCL12-induced accumulation of inositol phosphates: CXCL12 30 nM; for agonist activity, inositol phosphate accumulation: up to a concentration of 100 nM
Chain of CXCR4 (P61073 whole entry): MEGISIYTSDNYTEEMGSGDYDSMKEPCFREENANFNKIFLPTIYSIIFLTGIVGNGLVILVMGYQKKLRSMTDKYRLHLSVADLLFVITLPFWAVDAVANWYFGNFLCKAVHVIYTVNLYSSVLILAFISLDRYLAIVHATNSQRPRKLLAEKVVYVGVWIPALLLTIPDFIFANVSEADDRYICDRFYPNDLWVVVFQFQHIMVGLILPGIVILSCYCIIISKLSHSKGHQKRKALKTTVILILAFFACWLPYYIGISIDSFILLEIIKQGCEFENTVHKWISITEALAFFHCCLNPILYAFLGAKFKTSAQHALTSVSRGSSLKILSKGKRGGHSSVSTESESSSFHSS
Protocol: HEK293T cells were maintained at 37° C. in a humidified 5% CO2, 95% air atmosphere in Dulbecco's modified Eagle's medium (DMEM) containing 2 mM L-glutamine, 50 IU/ml penicillin, 50 μg/ml streptomycin, and 10% (v/v) fetal calf serum. Jurkat cells were cultured in a humidified 5% CO2, 95% air atmosphere in a 1:1 mixture of Dulbecco's modified Eagle's medium (DMEM) and Ham's F12 medium containing 2 mM L-glutamine, 50 IU/ml penicillin, 50 μg/ml streptomycin, and 10% (v/v) fetal calf serum. […] [^125 I]-Labelling— Radiolabeling of Nanobodies with ^125I was performed using the Iodo-gen method (Pierce, Rockford, Ill.) according to the manufacturer's protocol. ^125I-labeled Nanobodies was separated from free iodine (>99%) using a Sephadex G-25 gel filtration column (Amersham Biosciences, Piscataway, N.J.). […] Competition Binding Assays— Membranes from HEK293T cells transiently expressing CXCR3 or CXCR4 were prepared 48 h after transfection as follows. Cells were washed and scraped from the cell culture dishes with ice-cold PBS containing 1 mm EDTA. The scraped cells were pelleted at 1500×g for 10 min at 4° C. The pellet was washed and then resuspended in ice-cold membrane buffer (15 mM Tris, pH 7.5, 1 mM EGTA, 0.3 mM EDTA, and 2 mM MgCl2). The cell suspension was homogenized by 10 strokes at 1200 rpm using a Teflon-glass homogenizer and rotor and further subjected to three freeze-thaw cycles using liquid nitrogen. Membranes were separated by centrifugation at 40,000 g for 25 min at 4° C. The membrane pellet was washed and resuspended in ice-cold Tris-sucrose buffer (20 mM Tris, pH 7.4, and 250 mM sucrose) and frozen in liquid nitrogen. The total protein was determined using a Bradford assay (Bio-Rad). Periplasmas (1:10) or ligands were pre-incubated with membranes in binding buffer (50 mM HEPES (pH 7.4), 1 mM CaCl2, 5 mM MgCl2, 100 mM NaCl, 0.5% bovine serum albumin) supplemented with 0.5% BSA for 1 h at 22° C. before the addition of [^125I]-CXCL12 (40 pM) or [^125I]-238D2 (3 nM) or [^125I]-238D4 (3 nM) for additional 2 h at 22° C. […] Membranes were then harvested over polyethylenimine (0.5%)-treated Whatman GF/C filter plates and washed three times with ice cold binding buffer containing 500 mM NaCl. Plates were counted by liquid scintillation. Inositol Phosphate Accumulation Assay— 24 hours post transfection with pcDNA3.1-CXCR4 and pcDNA1-HA-mG {alpha} qi5 (see Verzijl et al, 2008 supra), 250.000 cells were seeded into 24-wells plates and labelled overnight using inositol-free minimal essential medium supplemented with 1 μCi myo-[2-^3H]-inositol. The next day, the cells were washed once to remove not incorporated myo-[2-^3H]-inositol. […] In agonist experiments, the cells were directly stimulated with test compounds and LiCl (10 mM) in assay buffer for 2 h at 37° C. The stimulation was stopped by aspirating the stimulation medium and adding ice-cold 10 mM formic acid. The accumulated inositol phosphates were isolated by anion exchange chromatography and counted by liquid scintillation. CRE Reporter Gene Assay— HEK239T cells were transfected with pCRE/β-galactosidase (Chen W, Shields T S, Stork P J S, Cone R D (1995) Anal Biochem 226:349-354) and plasmids (pcDEF3 or pcDNA3.1) encoding the indicated receptors. 40,000 transfected cells per well were seeded into 96 well plates and grown in DMEM supplemented with 10% fetal calf serum. The medium was replaced 32 h after transfection by serum-free DMEM supplemented with 0.5% bovine serum albumin and ligands as indicated. Following 16 h of ligand incubation, the medium was removed, the cells were lysed in 100 μl of assay buffer (100 mM sodium phosphate buffer at pH 8.0, 4 mM 2-nitrophenol-β-D-pyranoside, 0.5% Triton X-100, 2 mM MgSO4, 0.1 mM MnCl2, and 40 mM β-mercaptoethanol) and incubated at room temperature. […]

[3] = HEK293T-CXCR4-Gαqi5/30 nM CXCL12, mean ± S.E.M.

B1: 238D4: Nanobody (VHH) raised against human CXCR4, SEQ ID NO: 239 (protein)
VHH: EVQLMESGGGLVQAGGSLRLSCAASGRTFNNYAMGWFRRAPGKEREFVAAITRSGVRSGVSAIYGDSVKDRFTISRDNAKNTLYLQMNSLKPEDTAVYTCAASAIGSGALRRFEYDYSGQGTQVTVSS
modifications: Nanobody, Nanobody constructs or fragments thereof
effect on agonist-induced response at CXCR3 [1]: do not act as agonists or antagonists; also recorded: do not alter
inhibition of the CXCL12-induced accumulation of inositol phosphates [2]: fully inhibited
Imax (%), IP accumulation [2, 3]: 90 ± 5%
agonist activity, inositol phosphate accumulation [2]: no intrinsic activity; also recorded: No agonist activity

B2: 238D2: Nanobody (VHH) raised against human CXCR4, SEQ ID NO: 238 (protein)
VHH: EVQLVESGGGLVQTGGSLRLSCAASGFTFSSYAMSWVRQAPGKGLEWVSGIKSSGDSTRYAGSVKGRFTISRDNAKNMLYLQMYSLKPEDTAVYYCAKSRVSRTGLYTYDNRGQGTQVTVSS
modifications: Nanobody, Nanobody constructs or fragments thereof
effect on agonist-induced response at CXCR3 [1]: do not act as agonists or antagonists; also recorded: do not alter
inhibition of the CXCL12-induced accumulation of inositol phosphates [2]: fully inhibited
Imax (%), IP accumulation [2, 3]: 86 ± 12%
pKi or pIC50, IP accumulation [2, 3]: 8.51 ± 0.11
agonist activity, inositol phosphate accumulation [2]: no intrinsic activity; also recorded: No agonist activity
